From patent publication US20040002450A1 (published 2004)
Non-standard residues stand in square brackets, D forms with d. No end group written: not given here. sY = N[C@@H](Cc1ccc(OS(=O)(=O)O)cc1)C(=O)O

T1: PSGL-1 on KG-1 cells (human, UniProt Q14242 42-412, sulfated tyrosines in the N-terminal site)
T1 construct: whole, on cells; results told for KG-1 cells are written against this molecule; also called P-Selectin Glycoprotein Ligand-1; CD162
T1 sequence (looked up): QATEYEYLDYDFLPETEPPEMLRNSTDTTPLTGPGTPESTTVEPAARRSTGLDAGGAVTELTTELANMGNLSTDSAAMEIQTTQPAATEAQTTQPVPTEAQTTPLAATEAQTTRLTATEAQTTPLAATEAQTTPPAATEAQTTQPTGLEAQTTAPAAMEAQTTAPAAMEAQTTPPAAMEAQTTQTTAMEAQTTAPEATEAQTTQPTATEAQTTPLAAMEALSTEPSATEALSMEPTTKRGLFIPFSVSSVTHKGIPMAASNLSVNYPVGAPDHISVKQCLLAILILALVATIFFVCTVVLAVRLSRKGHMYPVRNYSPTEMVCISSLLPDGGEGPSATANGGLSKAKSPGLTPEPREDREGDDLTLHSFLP


Columns and labels:
PSGL-1 on KG-1 cells [1] = target: T1, PSGL-1 on KG-1 cells; assay: radio receptor assay on KG-1 cells, dimer as competitor
PSGL-1 on KG-1 cells [2] = target: T1, PSGL-1 on KG-1 cells; assay: second radioreceptor competition assay on KG-1 cells
Experimental: (§1) The assay system involved the use of radioactive ligands that were prepared by iodination with ¹²⁵I using chloramine T on the Y1-IgG construct or the Bolton-Hunter (CONY1) reagent. The assay tubes contained 5×10⁶ KG-1 cells per 0.2 ml and a labeled tracer with varying amounts of unlabeled competitor, in PBS+0.1% BSA, pH 7.4. After one hour incubation with agitation at 4° C., the cells were thoroughly washed with cold buffer and taken for radioactivity counting.
In a second RRA using labeled CONYL, a 100 ng/tube of ¹²⁵I-Y1-IgG was used, and competition was performed with each of the three molecules.

PSGL-1 on KG-1 cells [3] = target: T1, PSGL-1 on KG-1 cells; assay: FACS on KG-1 cells, directly FITC-labelled
PSGL-1 on KG-1 cells [4] = target: T1, PSGL-1 on KG-1 cells; assay: radioreceptor competition assay on KG-1 cells, 125I-Y1-IgG tracer
Experimental: as §1
For the radio receptor binding assay (RRA), 2 ng/tube of ¹²⁵I-Y1-IgG was used, and competition was performed with each of the three molecules.

Y1 scFv [5] = target: T2, Y1 scFv; assay: competitive FACS, 1 µg Y1-scFv on ~10^7 washed platelets, peptide 200 µM
T2 construct: Fully human scFv from the Nissim I phage library; Used biotin-labelled in the Western blots; also called scFv Y1; scFv-Y1
T2 sequence (scFv, as listed by the source): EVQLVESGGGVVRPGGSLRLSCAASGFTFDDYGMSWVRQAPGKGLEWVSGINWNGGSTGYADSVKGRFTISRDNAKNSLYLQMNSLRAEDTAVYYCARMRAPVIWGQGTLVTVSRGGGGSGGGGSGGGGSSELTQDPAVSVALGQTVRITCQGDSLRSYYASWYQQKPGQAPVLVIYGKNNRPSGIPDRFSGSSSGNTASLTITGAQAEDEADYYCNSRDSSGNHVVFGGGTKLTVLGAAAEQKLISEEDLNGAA
Experimental: (§2) ELISA assays were developed to evaluate the effect of the GPIb derived synthetic peptides on the binding of Y1 to purified glycocalicin. In addition, FACS analysis using washed platelets was carried out. To evaluate the importance of sulfated tyrosine within the Y1 binding site of GPIb, a competitive binding FACS analysis was used. Y1-scFv at a concentration of 1 μg was preincubated with different peptides at concentrations of 2.5 and 200 μM. After a preincubation for 30 minutes at room temperature the mixture was added to a tube containing ˜10⁷ washed platelets and the binding of Y1 to the washed platelets was assessed using polyclonal rabbit anti-scFv-PE. The inhibitory effect of the peptides compared to control binding (Y1 alone) was evaluated by measuring the residual binding of Y1 to washed platelets. The peptides and the results are described in Table 1 and are similar to results that were observed using the same peptides in an ELISA assay (Table B). In both assays, a control level of Y1 binding was determined, as follows. A polystyrene microtiter maxisorb plate was coated with (a) purified glycocalicin or (b) washed platelets. After extensive washing, 0.5 μg/well of Y1 was added. The plate was then incubated with rabbit anti-scFv followed by addition of anti rabbit —HRP (horse radish peroxidase) and HRP substrate. The level of anti rabbit —HRP binding was measured by the intensity of the color produced, and the level of anti rabbit —HRP binding correlates with the level of binding of anti Y1-scFv and the level of binding of Y1. The optical density was measured at A405. Each sample was assayed in duplicate, and the average was calculated.

Y1 scFv [6] = target: T2, Y1 scFv; assay: competition ELISA on coated glycocalicin, 0.25 µg/well Y1, peptide 2.5 µM
Experimental: as §2
(§3) The effect of synthetic GPIbα peptides on Y1 binding to purified glycocalicin was evaluated by mixing varying concentrations of the peptides with a constant amount of Y1. […] The inhibitory effect of the peptides was evaluated by measuring the residual binding of Y1 to glycocalicin using rabbit anti Y1scFv and anti rabbit —HRP antibodies, as described for evaluation of Y1 binding in the absence of peptides.

Y1 scFv [7] = target: T2, Y1 scFv; assay: competitive FACS, 1 µg Y1-scFv on ~10^7 washed platelets, peptide 2.5 µM
Experimental: as §2

Y1 scFv [8] = target: T2, Y1 scFv; assay: competition ELISA on coated glycocalicin, 0.25 µg/well Y1, peptide 0.5 µM
Experimental: as §2, §3

Y1 scFv [9] = target: T2, Y1 scFv; assay: competition ELISA on coated glycocalicin, 0.25 µg/well Y1, peptide 25 µM
Experimental: as §2, §3

Row | fold efficiency against the monomer (PSGL-1 on KG-1 cells [1]) [fold] | Kd (PSGL-1 on KG-1 cells [2]) [nM] | fold higher affinity than CONY1 (PSGL-1 on KG-1 cells [2]) [fold] | fold less material than the monomer (PSGL-1 on KG-1 cells [3]) [fold] | Kd (PSGL-1 on KG-1 cells [4]) [nM] | fold higher affinity than CONY1 (PSGL-1 on KG-1 cells [4]) [fold] | fold lower affinity than the full Y1 antibody (PSGL-1 on KG-1 cells [4]) [fold] | Residual Binding of Y1 (% of baseline) (Geo Mean) (Y1 scFv [5]) | Residual Binding of Y1 (% of baseline) (Y1 scFv [6]) | Residual Binding of Y1 (% of baseline) (Geo Mean) (Y1 scFv [7]) | Residual Binding of Y1 (% of baseline) (Y1 scFv [8]) | Residual Binding of Y1 (% of baseline) (Y1 scFv [9]) | Binder
1 | 30 | ~50 | 20 | 10 | ~40 | 30 | 2 | – | – | – | – | – | Y1-cys-kak (cysteine dimer) (other, Homodimer held by an interchain disulfide between Cys243 of chain 1 and Cys243 of chain 2., also called Y1-cys-kak scFv; dimer Y1-cys-kak) scFv: MEVQLVESGGGVVRPGGSLRLSCAASGFTFDDYGMSWVRQAPGKGLEWVSGINWNGGSTGYADSVKGRFTISRDNAKNSLYLQMNSLRAEDTAVYYCARMRAPVIWGQGTLVTVSRGGGGSGGGGSGGGGSSELTQDPAVSVALGQTVRITCQGDSLRSYYASWYQQKPGQAPVLVIYGKNNRPSGIPDRFSGSSSGNTASLTITGAQAEDEADYYCNSRDSSGNHVVFGGGTKLTVLGGGGCKAK
2 | – | – | – | – | – | – | – | 119 % of baseline | 100 % of baseline | 96 % of baseline | 121 % of baseline | 89 % of baseline | REEGRQHFFLLEGRSSYS (also called negative control peptide) [EGR]
3 | – | – | – | – | – | – | – | 26 % of baseline | 67 % of baseline | 82 % of baseline | 80 % of baseline | 21 % of baseline | GDEGDTDL[sY]D[sY][sY]P [P-3-S]
4 | – | – | – | – | – | – | – | 7 % of baseline | 52 % of baseline | 61 % of baseline | 78 % of baseline | 15 % of baseline | TDL[sY]D[sY][sY]PEEDTE [P-2-S]
